Patent US20190225670A1, “COMPOUNDS AND METHODS FOR ACTIVATING TIE2 SIGNALING” (ASCLEPIX THERAPEUTICS, LLC, priority 2016, published 2019)

Legend:
MEC monolayers = test: FITC Transwell permeability assay; assay type: cell-based, human; details: each agent alone
Protocol: The integrity of these junctions is also important for the regulation of monolayer permeability by controlling the size of intercellular openings. The effect of the AXT107 on EC permeability was further investigated by the transendothelial diffusion of FITC-labeled dextran across MEC monolayers seeded onto permeable Transwell® substrates.
Transwell, twenty-four-well inserts (Corning) were coated with 7.5 μg/cm^2 FN1 for two hours at 37° C., aspirated, and then dried for thirty minutes at room temperature. Wells were then seeded with 7.5×10^4 MECs in 100 μl of EBM-2 media (without phenol red) and allowed to settle for thirty minutes at room temperature. 1 ml of EGM-2 media was then added to the bottom chamber and an additional 200 μl to the top chamber. The plate was incubated for twenty-four hours at 37° C. after which the media was aspirated and an additional 7.5×10^4 MECs were plated in each well as described above. After forty-eight hours at 37° C., the media was aspirated from both chambers and the cells were washed twice in dPBS containing Ca^2+ and Mg^2+, once with EBM-2 media (without phenol red) and serum starved in EBM-2 media applied to both chambers for two hours at 37° C. After this incubation, 100 μM AXT107 or an equivalent amount of DMSO vehicle was added and incubated for an additional ninety minutes. In the top chamber, the cells were then treated with 200 ng/ml Ang2, 100 ng/ml VEGFA, both, or PBS control and in the bottom chamber, the cells were then treated with 25 μg/ml FITC-Dextran (40 kDa MW). AXT107 was also added in both chambers to maintain a concentration of 100 μM. After three hours, 10 μl was removed from the top chamber of each well and mixed with 90 μl of water in a clear bottom, 96-well plate. Fluorescence values for each sample were calculated using a Perkin Elmer plate reader.

Tie2 = test: Western blot of phospho-Tie2 (Y992) in MEC monolayers treated with AXT107 and angiopoietin; assay type: cell-based, human; details: ligand alone, no AXT107
Protocol: A confluent monolayer of human microvascular endothelial cells (HMEC) was serum starved with EBM-2 overnight. After a 90 min treatment with AXT107 at concentrations of 0, 10, 32, and 100 μM, the cells were treated for 15 min with 1 mM sodium orthovanadate. Next the cells were treated with Angiopoietin-2 (Ang-2) at 200 ng/mL for 15 min. Following cell lysis, the lysates were immunoblotted for pTie2 (Y992), pSTAT3 (Y705), and pAkt (S473).
To investigate the effects of the integrin inhibitor AXT107 on Tie2 signaling, confluent monolayers of microvascular endothelial cells (MECs) on fibronectin-coated dishes were treated with various concentrations of AXT107 followed by exposure to the Tie2 ligands Ang1 or Ang2.
For Ang1/2 signaling investigations, cell culture dishes (10 cm diameter) were coated with 5 μg/ml fibronectin (FN1; Sigma-Aldrich, St. Louis, Mo.) for two hours at 37° C. The FN1 solution was then removed by aspiration and 5×10^6 microvascular endothelial cells (MECs; Lonza, Walkersville, Md.) were plated in EGM-2MV media (Lonza) and cultured for forty-eight hours at 37° C. The cells were then serum starved for sixteen hours in serum-free EGM-2 base media (Lonza). AXT107 (0-100 μM, as indicated) was subsequently added to each culture and incubated for seventy-five minutes at 37° C. The cultures were then treated with 1 mM sodium vanadate (New England Biolabs, Ipswich, Mass.) for fifteen minutes to enhance the phospho-Tie2 signal followed by stimulation with 200 ng/ml angiopoietin (R&D Systems, Minneapolis, Minn.) for an additional fifteen minutes. The cells were then transferred to ice, washed twice with ice cold Dulbecco's phosphate-buffered saline (dPBS) containing Ca^2+ and Mg^2+, and collected by scraping in 500 μl of 1×Blue Loading Buffer (Cell Signaling, Danvers, Mass.). Lysate samples were then sonicated, boiled, and resolved by SDS-PAGE. Specific proteins were identified by Western blot, using the following primary antibodies: Cell Signaling—phospho-Tie2 (Y992) (Cat#: 4221), Tie2 (Cat#: 7403), phospho-Stat3 (Y705) (Cat#: 4113), Stat3 (Cat#: 4904), phospho-Akt (S473) (Cat#: 4058), Akt (Cat#: 9272), phospho-p44/42 MAPK (T202/Y204) (Cat#: 4370), p44/42 MAPK (Cat#: 4695); BD Transduction Laboratories—β1 integrin (Cat#: 610467); Millipore—α5 integrin (Cat#: AB1928) and detected with HRP-conjugated goat anti-rabbit and sheep anti-mouse secondary antibodies (GE healthcare).

Molecule	FITC-dextran diffusion across the monolayer, single treatment (MEC monolayers)	Tie2 phosphorylation by ligand alone (Tie2)
VEGF	appeared to increase permeability (although non-significantly)	
Ang2: Tie2 ligand; endogenous Tie2 antagonist and weak agonist (protein) YNNFRKSMDSIGKKQYQVQHGSCSYTFLLPEMDNCRSSSSPYVSNAVQRDAPLEYDDSVQRLQVLENIMENNTQWLMKLENYIQDNMKKEMVEIQQNAVQNQTAVMIEIGTNLLNQTAEQTRKLTDVEAQVLNQTTRLELQLLEHSLSTNKLEKQILDQTSEINKLQDKNSFLEKKVLAMEDKHIIQLQSIKEEKDQLQVLVSKQNSIIEELEKKIVTATVNNSVLQKQQHDLMETVNNLLTMMSTSNSAKDPTVAKEEQISFRDCAEVFKSGHTTNGIYTLTFPNSTEEIKAYCDMEAGGGGWTIIQRREDGSVDFQRTWKEYKVGFGNPSGEYWLGNEFVSQLTNQQRYVLKIHLKDWEGNEAYSLYEHFYLSSEELNYRIHLKGLTGTAGKISSISQPGNDFSTKDGDNDKCICKCSQMLTGGWWFDACGPSNLNGMYYPQRQNTNKFNGIKWYYWKGSGYSLKATTMMIRPADF	influenced FITC-dextran diffusion across the monolayer	insignificant effects
Ang1: Tie2 ligand; binds Tie2 and stimulates phosphorylation and downstream signaling (protein) SNQRRSPENSGRRYNRIQHGQCAYTFILPEHDGNCRESTTDQYNTNALQRDAPHVEPDFSSQKLQHLEHVMENYTQWLQKLENYIVENMKSEMAQIQQNAVQNHTATMLEIGTSLLSQTAEQTRKLTDVETQVLNQTSRLEIQLLENSLSTYKLEKQLLQQTNEILKIHEKNSLLEHKILEMEGKHKEELDTLKEEKENLQGLVTRQTYIIQELEKQLNRATTNNSVLQKQQLELMDTVHNLVNLCTKEGVLLKGGKREEEKPFRDCADVYQAGFNKSGIYTIYINNMPEPKKVFCNMDVNGGGWTVIQHREDGSLDFQRGWKEYKMGFGNPSGEYWLGNEFIFAITSQRQYMLRIELMDWEGNRAYSQYDRFHIGNEKQNYRLYLKGHTGTAGKQSSLILHGADFSTKDADNDNCMCKCALMLTGGWWFDACGPSNLNGMFYTAGQNHGKLNGIKWHYFKGPSYSLRSTTMMIRPLDF		induced phosphorylation
